Assay results taken from the supplement of paper PMC12042874.
± gives the uncertainty stated by the source.

Assay: amyloid nucleation score (Sup35N fusion, yeast selection) (log enrichment); library NNK1; higher = more nucleation; inactive = no reads after selection
In short: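 Yeast lacking psi expressed peptides of 20 random codons fused to Sup35N, received 100 μM copper sulfate for 24 hours, and were then grown for 7 days at 30°C on medium lacking adenine and uracil. Illumina sequencing of input and output plasmid inserts provided the reads. Nucleation scores are DiMSum log enrichments of output over input, centred on the mode of non-aggregating sequences. Any sequence with under 100 input reads was excluded.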

| Substance | amyloid nucleation score |
| --- | --- |
| VAPVEYICELTLWA | -1.22 ± 2.7 |
| VARTW | 0.602 ± 0.57 |
| VATYLLDHVYLNSCQSHCAM | 1 ± 0.35 |
| VAWSPLRSSKPGTLSTVGDT | 0.83 ± 1.1 |
| VCHAVRISISSSASTLAE | -0.122 ± 0.33 |
| VCIECTVAVKFHGYMRHSCC | 1.09 ± 0.54 |
| VCLLHNIVKGFARYINSHK | 0.423 ± 0.5 |
| VCLVVEIG | 1.04 ± 0.93 |
| VCSRLDSEQHDHECASQELM | 0.106 ± 0.99 |
| VCTCIFRFQFLILCVRVCEL | 0.293 ± 0.85 |
| VCVQILAASTWM | 0.844 ± 0.42 |
| VCWLGIKCVRVISNWLCAQS | -1.04 ± 1.6 |
| VCYAKTAVFSMCGFIWSR | 0.163 ± 0.77 |
| VDGGMLSHYYYC | 0.258 ± 0.23 |
| VDGLHLNSYYEPVSMMSIVV | -0.336 ± 0.43 |
| VDISIVWDVPHQVLTGGFY | -0.531 ± 0.29 |
| VDLILRRFEMRSDSLFGLWE | -0.481 ± 0.58 |
| VDNNARDTSVGSALENMWVL | 1.16 ± 0.62 |
| VDPAD | 0.553 ± 0.43 |
| VDPYQVNYLNKLVTENYRVS | 0.097 ± 0.33 |
| VDRFEVLTYLKE | -0.175 ± 1 |
| VDRVGIQYVLEWCSRRSGQV | 0.04 ± 1.4 |
| VDVHVGCRTIRL | 0.034 ± 0.32 |
| VECVSVQRFGAQCLSCYPSW | -0.07 ± 0.55 |
| VEFYRYFGWCPNYLPQHQWL | -0.148 ± 0.56 |

| Substance | amyloid nucleation score |
| --- | --- |
| VENTPSCSDISSDLMGREIH | -0.87 ± 0.35 |
| VEPLCGTRFACRLNAFKTTG | -0.097 ± 0.39 |
| VEVSWAAQST | 0.506 ± 0.91 |
| VEWASRDTHWRSLSLIIYLG | inactive |
| VFAMPYYSCGVLWNRGNW | 0.566 ± 0.48 |
| VFDAKGLNAHFNEVNVVYIR | 4.77 ± 0.062 |
| VFFGVVQLICDGVKEIFPNL | 4 ± 0.1 |
| VFFSYINCLRF | 0.218 ± 0.45 |
| VFGHIGIDRGI | 2.74 ± 0.22 |
| VFGSCWYLYFVYLPTNRFRM | -0.134 ± 0.3 |
| VFGVPVTCGGRPVFLIKVVG | -0.794 ± 1.4 |
| VFHVAKSRRVTHPSILISL | 1.53 ± 0.74 |
| VFLMLEVCLMV | 0.362 ± 0.72 |
| VFLSIGTERMILLIVWHCLN | -0.34 ± 0.57 |
| VFLVGMFLIRRVAVN | 0.72 ± 0.87 |
| VFNHTVPQSIRFYTYNRSSR | 3.87 ± 0.078 |
| VFRFRGCF | 1.62 ± 0.38 |
| VFTIWSMFFIVRFNLWWKCA | 0.081 ± 0.49 |
| VFVVDIFLFVMNCPYDPLSR | 2.6 ± 0.066 |
| VFYLCFTSQYYLSAGTVNAW | 4.99 ± 0.064 |
| VFYVFWYFRLCI | 0.035 ± 0.2 |
| VGFEGHS | -0.58 ± 0.6 |
| VGFYWNGWTTKGCWDNSWVL | 0.382 ± 0.55 |
| VGHSEIKMTMTRLADLGVCE | 0.612 ± 0.62 |
| VGHYGRETHLCSWCQIANGA | inactive |

| Substance | amyloid nucleation score |
| --- | --- |
| VGLERSWGEAKAVNMQRHGS | 0.346 ± 0.81 |
| VGLGYYNSSK | 0.91 ± 0.51 |
| VGPAANHIGHIVRWCRPGGP | 0.33 ± 0.5 |
| VGPRGSGPWGGVCLCGCSKE | 1.11 ± 0.51 |
| VGRHALGTSRGKRL | -0.307 ± 0.67 |
| VGSRLQRHGDGTGSLGLSWC | inactive |
| VGSTLYHLRKDMSTLSPGMY | 0.012 ± 0.34 |
| VGVGFIHNLGTLEIQVT | -0.359 ± 0.36 |
| VGVHRHSSWWEFAYCASRQ | -0.537 ± 0.71 |
| VGWLRFIRWYDPRLENWRTG | 0.235 ± 0.78 |
| VGWSMWNMIRMMVVPVAGPG | 0.253 ± 0.35 |
| VHLSGFVSLNLTVVSIRCIA | 2.06 ± 0.31 |
| VHNCMVFLLKFIDSRHFIVI | -0.292 ± 1.6 |
| VHSGTKEKGF | 1.05 ± 0.54 |
| VHSVLKWLRWDSIPCIVLIR | -0.487 ± 0.32 |
| VHVFSCLCPLLGSMIFLWMV | -0.871 ± 0.68 |
| VICSHLVSITYYLY | 3.59 ± 0.057 |
| VIHRIIDVLF | -0.06 ± 0.57 |
| VIHTRGNWSKRHVMIWISES | -0.016 ± 1.2 |
| VIKDFNDNYTGFRHYSKILI | -0.634 ± 1.7 |
| VIKFWSQ | 0.536 ± 0.77 |
| VILECNVAGVGELAQCQCAG | 0.986 ± 0.59 |
| VILFYSR | 4.49 ± 0.11 |
| VILRIIILYCLYHVWISGM | 0.177 ± 0.34 |
| VINCNWKFSFFFALVNEGGV | 6.554 ± 0.048 |

| Substance | amyloid nucleation score |
| --- | --- |
| VIQRTYCGRVLNLHALI | 0.245 ± 0.57 |
| VISGSDVLRYPRYSNAAFRT | inactive |
| VISINSVLACVYTIVMR | -0.1 ± 0.73 |
| VISMTKMLAWFTGLVYGYYG | -0.21 ± 0.35 |
| VITNHDDE | 0.51 ± 0.47 |
| VITTNLTCFALSYAAVFISK | 3.69 ± 0.078 |
| VIVCIEAAAETYSTGQSLDA | -0.15 ± 0.3 |
| VKGSGGGWFERNSGAPRKVF | 1.03 ± 0.38 |
| VKKLQVA | 1.11 ± 0.74 |
| VKLDIVFLMVFGPLCSESPF | 1.83 ± 0.24 |
| VKTINFISQLSCWCKRPFRK | 8.673 ± 0.06 |
| VKVIKLRHSLGTFFCSAQLQ | inactive |
| VKYLVIL | -0.618 ± 0.47 |
| VLCAGLPWYTELVRFSYWAD | -0.642 ± 0.56 |
| VLDVVVCSSWGDLKRNLRPC | 3.29 ± 0.11 |
| VLGRITAIFSVCGLVAVRDN | 5.63 ± 0.076 |
| VLIGIWLHLGHFEPALSM | -0.133 ± 0.53 |
| VLLGELIL | 0.434 ± 0.56 |
| VLLRKVKRLNRYHMSTGGL | inactive |
| VLRTGVH | 1.25 ± 0.66 |
| VLSAGVCFMTRVRSVFDGVH | 2.14 ± 0.24 |
| VLSRSMH | -0.206 ± 1.7 |
| VLVRAWTLDCCLLFVMMVVS | 0.558 ± 0.46 |
| VLWPLTISLWC | -0.236 ± 0.51 |
| VLYIGYYCQKSMEVLVTRSR | 1.06 ± 0.69 |

| Substance | amyloid nucleation score |
| --- | --- |
| VMADYVDNSHMVVMQTCVCM | 7.667 ± 0.061 |
| VMAPERST | -0.905 ± 1.6 |
| VMESTRNFSKVMSCSLFRFR | -0.684 ± 0.62 |
| VMFYSLHFCGVEDFFTGAER | 0.834 ± 0.57 |
| VMHLWLVYCHTTVS | 0.755 ± 0.73 |
| VMMRTSSARMGLLLDVTCGN | 0.058 ± 0.61 |
| VMRVAYNDT | 0.416 ± 0.36 |
| VMSKSNPIAV | 0.24 ± 0.54 |
| VMSSMMWYSYHMFHPYNAFE | 1.28 ± 0.79 |
| VMVRTCACFIR | 0.883 ± 0.51 |
| VNDLSCIGVGGDAKDNREGN | 1.34 ± 0.48 |
| VNGWARSMGGFLSCNSQRFG | -0.221 ± 0.65 |
| VNLNVFLRR | 0.059 ± 0.45 |
| VNPYMMLAQY | 0.748 ± 0.38 |
| VNSKFMGKY | 0.192 ± 0.39 |
| VNVFRNLFVTTDLWLSSTQN | -0.437 ± 0.66 |
| VNVITGWCAQELVVRAILEI | 0.341 ± 0.4 |
| VPENLVKMSEV | 0.279 ± 0.71 |
| VPMLDLGKVYNRSACP | inactive |
| VPNVGYI | 0.369 ± 0.54 |
| VPTSSFGGFVYVGVRVMCS | -0.487 ± 0.8 |
| VPYQCDKTKHFVRKVLILGA | 1.81 ± 0.58 |
| VQAAGYITLATVALWSTSMQ | 2.02 ± 0.31 |
| VQGLIQVSVYDRVAGCWHRI | -0.83 ± 0.66 |
| VQGYKVRLSGRNFGCNCASK | -1.85 ± 1.8 |

| Substance | amyloid nucleation score |
| --- | --- |
| VQGYTYGGCDGFMEWLGKLI | -0.295 ± 0.61 |
| VQIFEKLVQRSSVRQSENLK | 0.037 ± 0.93 |
| VQISQETFYNWLFVPAVSVP | -0.282 ± 0.38 |
| VQIWAAELMTDRRK | 0.436 ± 1.2 |
| VQPDDLARTGRLQLVLLVWN | -0.883 ± 0.92 |
| VRCLGWVDHERVRDLCIHSG | -0.414 ± 0.31 |
| VRCLLRYLLLESPQFINV | 1.7 ± 0.36 |
| VRDSGRIGMFKMGKV | -0.824 ± 0.88 |
| VRFFAPPWTWWLC | 0.087 ± 0.44 |
| VRKSVSTFT | 0.055 ± 0.37 |
| VRLCLVLLESDLLTGTVGIG | -1.02 ± 1.2 |
| VRLFV | 2.14 ± 0.65 |
| VRLNQLDNSLAVRSATNPGA | 0.524 ± 0.65 |
| VRMDHIRTKPPLHAIVAPQP | -1.68 ± 2.4 |
| VRMVQEMFRRRTLEELAMGA | 0.447 ± 0.68 |
| VRRGTVFAVGTCYIGRWFAV | 1.21 ± 0.97 |
| VRRIAWSNGWCRGIGGRSVL | -0.179 ± 0.39 |
| VRRQFVPKSYLCCESYFNEV | 0.32 ± 0.56 |
| VRSYDRMFYRDPQDLL | -0.077 ± 0.22 |
| VRTLLWSS | -1.55 ± 2.4 |
| VRYMWFAAGTREVTWSAFFM | -0.014 ± 0.32 |
| VSANICNRIVDGHFSLFYLN | -0.73 ± 0.37 |
| VSETAFLNTNKWGPKCLMWN | -1.42 ± 1 |
| VSGAKLAFN | -0.46 ± 1.6 |
| VSGLAGPEM | 0.412 ± 0.56 |

| Substance | amyloid nucleation score |
| --- | --- |
| VSGTVLTIEYCPY | 0.844 ± 0.27 |
| VSIFPFLTCLVVNLMLGGPV | 4.26 ± 0.11 |
| VSLLSVWFDTHYIWSITGVD | -0.247 ± 0.45 |
| VSLMCVALYKQISTRI | 0.102 ± 0.51 |
| VSLRAAWNLC | 0.606 ± 0.71 |
| VSMRN | 0.305 ± 0.21 |
| VSPDYMSYCIGVYLINLISV | 0.354 ± 0.59 |
| VSPMWVGYSRTSKLW | 0.036 ± 0.26 |
| VSQCS | 0.238 ± 0.54 |
| VSRNFVTKDSQLNGLSN | -1.52 ± 1.4 |
| VSRNIWYRWGNLLAVVKM | -0.025 ± 0.57 |
| VSRTCIQYCDDDDRSKSRSS | 0.253 ± 0.23 |
| VSTIFHIGFVLKFRDYRESE | 2.93 ± 0.18 |
| VSVFLGSGHRRARGW | -0.482 ± 0.47 |
| VSYFVHIC | 0.145 ± 0.56 |
| VSYYCAQALVLRIPEEWATE | -0.168 ± 1.3 |
| VTLGHHDRSCFYEDSVQTRD | 0.832 ± 0.49 |
| VTLTYNYVRRTHMRRDVVAK | 0.6 ± 0.34 |
| VTSWQIDKLPWASANSLFWL | 0.334 ± 0.27 |
| VTTYLG | -0.499 ± 0.74 |
| VTVLSSVLIL | 0.332 ± 0.27 |
| VTVTYIRCTR | 1.25 ± 0.63 |
| VVDVHVSFRCLFKMGV | 1.51 ± 0.4 |
